The values that follow come from patent US20240093191A1, “COMPOSITIONS AND METHODS FOR TREATING DISEASE ASSOCIATED WITH DUX4 OVEREXPRESSION” (RESEARCH INSTITUTE AT NATIONWIDE CHILDREN'S HOSPITAL, priority 2021, published 2024).

Holding throughout (format): cell-based, human
In series [1] the test system is mir-675-5p. Briefly: ddPCR of all mature mir-675-5p sequences (TaqMan Advanced miRNA cDNA synthesis) in HEK293 cells. Here is the method: Digital Droplet PCR (ddPCR). For mir-675 and mi405 constructs, RNA extraction was carried out as described for QPCR above. For cDNA synthesis, the TaqMan advanced cDNA synthesis kit (Thermo Fisher) was used and cDNA was prepared by following manufacturer's instructions. ddPCR was carried out using 1× ddPCR Supermix for probes (No dUTP) (Bio-Rad), 1× commercially available mir-675 advanced TaqMan probe, or a custom made mi405 advanced TaqMan probe (ThermoFisher) and 50 ng of cDNA. For DUX4 cDNA synthesis, the High-Capacity cDNA Reverse Transcription Kit (Applied Biosystems) was used according to manufacturer's instructions. Within the same cDNA reaction, 1×RT random hexamer primers and 25 pmoles of the Oligo(dT) primer were used to generate cDNA for DUX4 and DUX4-responsive biomarkers and for mouse Rpl13A, used as a reference gene. To quantify DUX4, the ddPCR reaction mixture (20 μL) contained 1× ddPCR Evagreen Supermix (Bio-Rad), 1 μM of forward and reverse DUX4 primers (Sharma et al., J Genet Syndr Gene Ther 2016 August; 7(4):303. doi: 10.4172/2157-7412.1000303. Epub 2016 Aug. 8), and 50 ng of cDNA. To quantify Rpl13A and DUX4-responsive biomarkers (Trim36 and Wfdc3), the 1× ddPCR Supermix for probes (No dUTP) and TaqMan specific probes were used for each of the genes. Droplets were generated using the Automatic Droplet generator QX200 AutoDG (Bio-Rad), the reactions were amplified in a C1000 Touch™ Thermal Cycler with 96-Deep Well Reaction Module (Bio-Rad). Cycling conditions were set up following the QX200 ddPCR Evagreen Supermix protocol. All assays are compatible with an annealing temperature of 58° C. Droplets were then read using the QX200 droplet reader (Bio-Rad). Finally, data were analyzed using the QuantaSoft analysis software (Bio-Rad). For quantification, each reaction of 20 μL was estimated to give at least 10,000 acceptable droplets.
In order to quantify the level of all these mature sequences, the TaqMan advanced miRNA cDNA synthesis method that uses universal reverse transcription (RT) chemistry to synthesize cDNA templates that can be quantified using the TaqMan Advanced miRNA probes was used. In this method, most of the processed mature miRNA sequences were quantified.
On the technique in general: Real-time PCR tracks product formation cycle by cycle.

For the next series, the system named is DUX4 protein. Briefly: Western blot of V5-tagged DUX4 protein in co-transfected HEK293 cells. Particulars: CMV.DUX4-FL/CMV.eGFP; HEK293; molar ratio 1 to 3; eGFP normalizer; relative to U6-milacZ; N = 3-8. Here is the method:
Western Blots. […] 50 mM Tris (pH 7.5-8.0), 150 mM NaCl, 0.1% (v/v) SDS, 0.5% (v/v) deoxycholate, 1% (v/v) triton X-100 (Fisher Scientific) and 1 tablet of protease inhibitor (ThermoFisher Scientific) per 10 mL of buffer. The total protein extract was quantified using the DC Protein Assay (Bio-Rad). Twenty microgram samples were separated on 12% SDS-PAGE, transferred to nitrocellulose membrane, using the wet transfer system, and incubated with the following antibodies: mouse monoclonal antibody to V5 (horseradish peroxidase [HRP]-coupled) [1:5,000 in 5% milk TBST buffer (150 mM NaCl, 50 mM Tris-HCl pH 7.4 and 0.1% Tween 20 (Fisher Scientific)), R961-25; Invitrogen); rabbit polyclonal eGFP antibody (1:50,000 in 3% BSA PBS, ab290; Abcam); mouse monoclonal β-actin antibodies (1:60,000; Sigma, St Louis, MO); overnight at 4° C. When using the eGFP antibody, membranes were blocked 30 mins with 3% BSA PBS prior to blotting. eGFP-probed blots were washed five times, 5 min each with 0.5% Tween 20 (Fisher Scientific) in TBST buffer, and then incubated with HRP-coupled goat anti-rabbit secondary antibody (1:250,000 in 3% BSA PBS, 115-035-144; Jackson ImmunoResearch) for 2 hours at room temperature. V5-probed blots were washed five times, 5 min each with 0.1% Tween 20 in TBST buffer. Following washes, blots were developed using Immobilon Western HRP substrate (Millipore) and exposed to film. DUX4.V5, and eGFP quantification was assessed using ImageJ.
For orientation: In western blotting, separated proteins are transferred to a membrane and probed.

For series [2], the system named is mir-675-5p. Briefly: Small-transcript northern blot of mir-675 processing in HEK293 cells. The following applies: HEK293; anti-mir-675-5p biotinylated probe. An excerpt: Small-Transcript Northern Blots. […] (SEQ ID NO: 148)).

B1: U6.mir-675-2.3: mir-675 construct with modified 5' and 3' flanking sequences (nucleic acid)
DNA: TCTAGAGATCCGACGCCGCCATCTCTAGGCCCGCGCCGGCCCCCTCGCACAGACTTGTGGGAGAAGCTCGGCTACTCCCCTGCCCCGGTTAATTTGCATATAATATTTCCTAGTAACTATAGAGGCTTAATGTGCGATAAAAGACAGATAATCTGTTCTTTTTAATACTAGCTACATTTTACATGATAGGCTTGGATTTCTATAAGAGATACAAATACTAAATTATTATTTTAAAAAACAGCACAAAAGGAAACTCACCCTAACTGTAAAGTAATTGTGTGTTTTGAGACTATAAATATCCCTTGGAGAAAAGCCTTGTTTGAATCACACTGCCCCAGGGTCTGGTGCGGAGAGGGCCCACAGTGGACTTGGTGACGCTGTATGCCCTCACCGCTCAGCCCCTGGGGATACTCCTAATCACACTTTTTT
With B1, the “fold change of all mature mir-675-5p sequences compared to U6.mir-675” value (“fold change” below) in the series with mir-675-5p [1] came out at 114±8%. Further, in the series with DUX4 protein, the “Average inhibition efficiency (%) of DUX4 protein levels” value (“Average inhibition efficiency (%)” below) was 64 ± 10 (N = 8) %.

B2: U6.mir-675-2.1: mir-675 construct with modified 5' and 3' flanking sequences (nucleic acid)
DNA: TCTAGAGATCCGACGCCGCCATCTCTAGGCCCGCGCCGGCCCCCTCGCACAGACTTGTGGGAGAAGCTCGGCTACTCCCCTGCCCCGGTTAATTTGCATATAATATTTCCTAGTAACTATAGAGGCTTAATGTGCGATAAAAGACAGATAATCTGTTCTTTTTAATACTAGCTACATTTTACATGATAGGCTTGGATTTCTATAAGAGATACAAATACTAAATTATTATTTTAAAAAACAGCACAAAAGGAAACTCACCCTAACTGTAAAGTAATTGTGTGTTTTGAGACTATAAATATCCCTTGGAGAAAAGCCTTGTTTGCCCCAGGGTCTGGTGCGGAGAGGGCCCACAGTGGACTTGGTGACGCTGTATGCCCTCACCGCTCAGCCCCTGGGGTAACTCCTAATCACACTTTTTT
B2: the “mature mir-675-5p bands on northern blot” value in the series with mir-675-5p [2] is on record as “detectable mir-675 mature sequences”. In the series on mir-675-5p [1], the “fold change” value turned out to be 142±45%. Besides, in the series on DUX4 protein, the “Average inhibition efficiency (%)” value is listed as 64 ± 4 (N = 8) %.

B3: U6.mir-675-2.5: mir-675 construct with modified 5' and 3' flanking sequences (nucleic acid)
DNA: TCTAGAGATCCGACGCCGCCATCTCTAGGCCCGCGCCGGCCCCCTCGCACAGACTTGTGGGAGAAGCTCGGCTACTCCCCTGCCCCGGTTAATTTGCATATAATATTTCCTAGTAACTATAGAGGCTTAATGTGCGATAAAAGACAGATAATCTGTTCTTTTTAATACTAGCTACATTTTACATGATAGGCTTGGATTTCTATAAGAGATACAAATACTAAATTATTATTTTAAAAAACAGCACAAAAGGAAACTCACCCTAACTGTAAAGTAATTGTGTGTTTTGAGACTATAAATATCCCTTGGAGAAAAGCCTTGTTAACGCGAATCACACTGCCCCAGGGTCTGGTGCGGAGAGGGCCCACAGTGGACTTGGTGACGCTGTATGCCCTCACCGCTCAGCCCCTGGGGATACTCCTAATCACACTTTTTT
Regarding B3, in the series on mir-675-5p [1], the “fold change” value is listed as 153±52%. Further, in the series with DUX4 protein, the “Average inhibition efficiency (%)” value was 56 ± 6 (N = 5) %.

B4: U6.mir-675F: U6 mir-675 construct with flanking sequences similar to H1.mir-675 (nucleic acid)
DNA: GACGCCGCCATCTCTAGGCCCGCGCCGGCCCCCTCGCACAGACTTGTGGGAGAAGCTCGGCTACTCCCCTGCCCCGGTTAATTTGCATATAATATTTCCTAGTAACTATAGAGGCTTAATGTGCGATAAAAGACAGATAATCTGTTCTTTTTAATACTAGCTACATTTTACATGATAGGCTTGGATTTCTATAAGAGATACAAATACTAAATTATTATTTTAAAAAACAGCACAAAAGGAAACTCACCCTAACTGTAAAGTAATTGTGTGTTTTGAGACTATAAATATCCCTTGGAGAAAAGCCTTGTTTGCCCCAGGGTCTGGTGCGGAGAGGGCCCACAGTGGACTTGGTGACGCTGTATGCCCTCACCGCTCAGCCCCTGGGGAATTCTTCGATTCTGCTTTTTT
For B4, the “mature mir-675-5p bands on northern blot” value in the series on mir-675-5p [2] is “detectable mir-675 mature sequences”. Besides, the “fold change” value with mir-675-5p [1] is on record as 133±38%. In the series with DUX4 protein, the “Average inhibition efficiency (%)” value is on record as 64 ± 6 (N = 6) %.
